experiment: label from the status in PepcDB records

Row | Sequence | protein production
1 | MGALRGRWAEEEALRFLLGKGYRLLWRNRRTPFGEVDLFMEKDGVYVVVEVKQRASARFGAPLEAITPGKVRRLLQSARFLLGRDDLPVRLEAVLVHGTPKDFRLEHLVLEL | failed
2 | MGDPFGGRFGGFRGSLFGGRDPFDDPFFSRPFEDLLEPSNTFSSGASFSNAHKNNGGRGLTIEELPSDEEVEERKDIGIDDQEHASSVNKPSVEHPEDDSDAERKIQNVNQRSDFNRREGTQSRANTFRHHISKVTYGGIHGAYYTSTRTRRKDGDGMVVEESKEADKTTGEATHRISRGINDKVIDYTVDGHSVTRKLNSSGGVESTQTLHNLDEGPAESTQPYHNLKFFERKLAGF | failed
3 | MGDVVEMTSELGFKYSILASGSTGNSFYLETPEKKILVDAGLSGKKITSLLAEIDRDPSDLDAILVTHEHKDHIHGVGVLARKYGMDIYANEKTWQIMDSKNMLGKVDNSQKHIFSRGKLLTFGDIDIESFGVSHDAINPQFYRFMKDGKSFVMLTDTGYVSDRMAGLIENADGYLIESNHDIEILRAGSYPWSTKQRILSDQGHLCNEDGADAMIRTIGNKTKKIYLGHLSKENNIKELAYMTMENQLARADFGVGTDFKIFVTSPDTATPLTDILEHHHHHH | not failed
4 | MGDWSKLPEELLGLIALRLYSVIELIRFRSICKSWRSSASGVNKNHSLSSPLIYFKPLQIILARAQANGQILSKYHGTVLSRATFFRVTLASSPDQGWLIKSDTDLKYRNFHLLNCLSRKALGRSRKLISLSEFIVSEIQESYAVVGRRTRETASEFKRVFLVRVQGGDHRVLVIGIDGKIRFWKGGIWNGIKKQVAQFSDFVLDEGLTYAVDTKGIMWWISSAYDIIRYGTKLHENITNGSCGEKRFVRCRGELYIVDRLIDENLLKRKADSYDDNAIVHFRNADYTNADLWEDGNGNDDFFAAQAHRFIHVLHDNLGNVSCKPFERDPPKTIGFKVYKNDEELLKWVEVKSLGDKAIVIATDACFSVSAHEFYGCLPNSIYFTDKKEEEVKVFKLDDGSITTMSESEQSCFQMFVPSFL | not failed
5 | MGEDRRSLRVDYDDNFLRNNICSLKVSFIKQQGGAEGVKRLYADLGLALVALIWGSTFPVVKIALDSMSPFAFNTVRFFIACLFFLPFLKGWDFKDGFKIGIASFLGYTFQTVGLDYTTATNAGFITSTYVVLAPIISWLVYKDVFDKRDVSGVLLAFVGFYFLSGYSGFNIGDILMLFCALFFGAEIAMISHYSRLSNPTMLAFWQSFAIFILSAPFAVFTTTKFEINTTVILCLLITAFFATFVAKMLQNWLQSYTKSSDAAVILSLEGVFAHLFSVAVLAEILTPVQYFGAFLILLAVIIVSLRV | failed
6 | MGEEAALDSFVKLEETLGEDEPCTARIIAPSSRAVLQSPTPPLPLKPHFLTNFPKYWSRPYLQAVPLHCQWERIPELVKQLSAKLIANDDMAELLLGESKLEQHLKEKPLRQGASPRGPRPQLTEVRKHLTAALDRGNLKSEFLQESNLVMAKLNYVEGDYKEALNIYARVGLDDLPLMAVPPYRLRMIAEAYATKGLCLEKLPVSSSTSNLHVDREQDVITCYEKAGDIALLYLQEIERVILTNIQNRSPKPGPAPHDQELGFFLETGLQRAHVLYFKNGNLTRGVGRFRELLRAVETRTTQNLRMTIARQLAEILLRGMCEQSYWNPLEEPPCQSPLDDPLRKGANTKTYTLPRRARVYSGENIFCPQENTEEALLLLLISESMANRDAVLSRIPEHKSDRLISLQSASVVYDLLTIALGRRGQYEMLSECLERAMKFAFEEFHLWYQFALSLMAAGKSARAVKVLKECIRLKPDDATIPLLAAKLCVGSLHWLEEAEKFAKTVVDVGEKTSEFKAKGYLALGLTYSLQATDASLRGMQEVLQRKALLALQRAHSLSPTDHQAAFYLALQLAISRQIPEALGYVRQALQLQGDDANSLHLLALLLSAQKHHHDALNIIDMALSEYPENFILLFSKVKLESLCRGPDEALLTCKHMLQIWKSCYNLTNPSDSGRGSSLLDRTIADRRQLNTITLPDFSDPETGSVHATSVAASRVEQALSEVASSLQSSAPKQGPLHPWMTLAQIWLHAAEVYIGIGKPAEATACTQEAANLFPMSHNVLYMRGQVAELRGNFDEARRWYEEALSISPTHVKSMQRLALVLHQLGRYSLAEKILRDAVQVNSTAHEVWNGLGEVLQAQGNDAAATECFLTALELEASSPAVPFTVIPRVL | failed
7 | MGEEEAVAEENGGLKVESGEQKSSWPTMRFDVSPYRTHHFSKQFRTARNPNNFLKGLKWSPDGSCFLASSEDNTLSLFHLPQDGGDSNGYGVPVPEEDSYGASLLVNEGESVYDFCWYPYMSVSDPLTCVFATSTRDHPIHLWDSTSGELRCTYRAYDAMDEITAAFSVGFNPDGTKIFAGYNSSIRVFDLHRPGRDFRQYSTLQKNKEGQAGILSTLAFSPTNSGMLAVGSYGQTTGIYREDNMELLYVLHGQEGGVTHVQFSKDGNYLYTGGRKDPYILCWDIRKSVEIVYKLYRATENTNQRVFFDIEPCGRHLGTGGQDGLVHMYDLQTGNWVSGYQAASDTVNAFSFHPYLPMAATSSGHRRFAIPDDDDGEDKNELQLKADENCVSLWSFYVEDNTYDENNGVASESHLQNVTEEIVLT | failed
8 | MGEGGQRATPSVTKIVGGEMAARVRAFDWSKTPLGPREDWSPALRLATDIVLASNFPMALRWGPELVLIYNDGYAPALHERHPSALGQSFYDTTPEFQAALRELHQDILTGTSGGFAFERLPLKVLKNGVLEAAYFTVNYSPVPDETAPNGIGGVLVAAVEISQSVKAEQTLRATQERYQ | failed
9 | MGELIYGEVKKQTKDGFIIDLGDNAEAYLAREEMIAKEILRPKQRMNAILYSVNREGRGAQLLLSRARPEMLMALMKKEIPLEHHHHHH | failed
10 | MGENVLICLCGSVNSINISHYIIELKSKFDEVNVIASTNGRKFINGEILKQFCDNYYDEFEDPFLNHVDIANKHDKIIILPATSNTINKIANGICDNLLLTICHTAFEKLSIFPNMNLRMWENPVTQNNIRLLKDYGVSIYPANISESYELASKTFKKNVVAPEPYKVLEFI | not failed
11 | MGERGVEMRLRIRFESAECEVELYEEWAPETVRAIADALPIKSTANRWGDEIYFTTQVAVEKEENSKDVVELGDVAYWIPGKAICLFFGKTPISDDKIRPASAVNVIGRIVNSMEGLKGVADGESVVVERA | not failed
12 | MGERIALATREGAPLAAYHAPPLEARRGGIVMLHAIWGVTPHLRQLSDSLAEQGYEVMLPSLMDAADAAFPVEDTTPSILDARMAMGERTGWGASTLPRVQACIDALNGPVYAMGFCYGGTTAWLAACRCEGLSAVSAFYGGDIAAYRDETPKVPTILHFGKTDTMIPLSAVDAVRDRHPDLPVYLYDAGHAFVAPSGHHPDSARLALLRTLQLFQR | failed
13 | MGESGLTNEIDELHEEVTAVSAPGVKPPAQAGRRNIWLKVLISATAFYILLLVALLVTGNPNLFPSLVMVGNFTVPVAYVAFLYERKNFSRLKMPIVSLAFLYGGLVGIIATSFIGPLFITQFNPGDILAVGLVEEFAKILGVVVIARRRRHVLEMDGLILGAAVGMGFAALESTGYAFTAFLISNGSISAVLEVTLFRGLLAPLGHGTWTAILASVLFRESRDCCFRVNLRVIGAYLLVSILHAMWNGLSLVLAPFTGLGLGAIITWALVGFIGLYVLWRRWREAVRLKPVLLPERENV | failed
14 | MGETVVRDAVTIGKPAEQLYAVWRDLPGLPLLMTHLRSVEVLDDKRSRWTVEAPAPLGTVSWEAELTADEPGKRIAWRSLPGARIENSGEVLFRPAPGARGTEVVVRLTYRPPGGSAGAVIARMFNQEPSQQLRDDLMRFKREQELGLEHHHHHH | not failed
15 | MGFEVRRRLSVADTVTLFNAVVGFVAGAIAFTDPHLAARLILLAVIADAIDGIVARNGDSSAVGPLLDSVTDVVSFGATPSLFLYVLLTDAYGGIESAHPAVFVGLALLASAYVVCSIVRTAFYSTYFDSPDERPGMPNTLGSIIIATAYLSGITNPLVLSVGALGLSLAMIAPFDYPKPGPKHAVPMGVVQAVAVVAPAALFRAGPRAMLAIALLFFALGPWFYPGE | failed
16 | MGFKCGIVGLPNVGKSTLFNALTKAGIEAANFPFCTIEPNTGVVPMPDPRLDQLAEIVKPQRTLPTTMEFVDIAGLVKGASKGEGLGNQFLTNIRETEAIGHVVRCFENDNIIHVSGKVNPADDIEVINTELALADLDTCERAIHRVQKKAKGGDKDAKAELAVLEKCLPQLENAGMLRALDLSAEEKAAIRYLSFLTLKPTMYIANVNEDGFENNPYLDQVREIAAKEGSVVVPVCAAVEADIAELDDEERDEFMQELGLEEPGLNRVIRAGYKLLNLQTYFTAGVKEVRAWTIPVGATAPQAAGKIHTDFEKGFIRAQTISFEDFITYKGEQGAKEAGKMRAEGKDYIVKDGDVMNFLFNV | not failed
